Earlier results on one substance are cited in PMC2654521.

Where “and” joins values, the source holds several entries; their conditions need not be identical. Equal values may be shown once. Read-outs that look alike come from different tables or passages of the source.

Data set [1] concerns the target N-type calcium channel (Rattus norvegicus) (UniProt Q02294). In words: radioligand.
The target is the same in data set [2]. In words: radioligand. This is another data set of the same source.

Chain of UniProt Q02294 (Q02294 whole entry): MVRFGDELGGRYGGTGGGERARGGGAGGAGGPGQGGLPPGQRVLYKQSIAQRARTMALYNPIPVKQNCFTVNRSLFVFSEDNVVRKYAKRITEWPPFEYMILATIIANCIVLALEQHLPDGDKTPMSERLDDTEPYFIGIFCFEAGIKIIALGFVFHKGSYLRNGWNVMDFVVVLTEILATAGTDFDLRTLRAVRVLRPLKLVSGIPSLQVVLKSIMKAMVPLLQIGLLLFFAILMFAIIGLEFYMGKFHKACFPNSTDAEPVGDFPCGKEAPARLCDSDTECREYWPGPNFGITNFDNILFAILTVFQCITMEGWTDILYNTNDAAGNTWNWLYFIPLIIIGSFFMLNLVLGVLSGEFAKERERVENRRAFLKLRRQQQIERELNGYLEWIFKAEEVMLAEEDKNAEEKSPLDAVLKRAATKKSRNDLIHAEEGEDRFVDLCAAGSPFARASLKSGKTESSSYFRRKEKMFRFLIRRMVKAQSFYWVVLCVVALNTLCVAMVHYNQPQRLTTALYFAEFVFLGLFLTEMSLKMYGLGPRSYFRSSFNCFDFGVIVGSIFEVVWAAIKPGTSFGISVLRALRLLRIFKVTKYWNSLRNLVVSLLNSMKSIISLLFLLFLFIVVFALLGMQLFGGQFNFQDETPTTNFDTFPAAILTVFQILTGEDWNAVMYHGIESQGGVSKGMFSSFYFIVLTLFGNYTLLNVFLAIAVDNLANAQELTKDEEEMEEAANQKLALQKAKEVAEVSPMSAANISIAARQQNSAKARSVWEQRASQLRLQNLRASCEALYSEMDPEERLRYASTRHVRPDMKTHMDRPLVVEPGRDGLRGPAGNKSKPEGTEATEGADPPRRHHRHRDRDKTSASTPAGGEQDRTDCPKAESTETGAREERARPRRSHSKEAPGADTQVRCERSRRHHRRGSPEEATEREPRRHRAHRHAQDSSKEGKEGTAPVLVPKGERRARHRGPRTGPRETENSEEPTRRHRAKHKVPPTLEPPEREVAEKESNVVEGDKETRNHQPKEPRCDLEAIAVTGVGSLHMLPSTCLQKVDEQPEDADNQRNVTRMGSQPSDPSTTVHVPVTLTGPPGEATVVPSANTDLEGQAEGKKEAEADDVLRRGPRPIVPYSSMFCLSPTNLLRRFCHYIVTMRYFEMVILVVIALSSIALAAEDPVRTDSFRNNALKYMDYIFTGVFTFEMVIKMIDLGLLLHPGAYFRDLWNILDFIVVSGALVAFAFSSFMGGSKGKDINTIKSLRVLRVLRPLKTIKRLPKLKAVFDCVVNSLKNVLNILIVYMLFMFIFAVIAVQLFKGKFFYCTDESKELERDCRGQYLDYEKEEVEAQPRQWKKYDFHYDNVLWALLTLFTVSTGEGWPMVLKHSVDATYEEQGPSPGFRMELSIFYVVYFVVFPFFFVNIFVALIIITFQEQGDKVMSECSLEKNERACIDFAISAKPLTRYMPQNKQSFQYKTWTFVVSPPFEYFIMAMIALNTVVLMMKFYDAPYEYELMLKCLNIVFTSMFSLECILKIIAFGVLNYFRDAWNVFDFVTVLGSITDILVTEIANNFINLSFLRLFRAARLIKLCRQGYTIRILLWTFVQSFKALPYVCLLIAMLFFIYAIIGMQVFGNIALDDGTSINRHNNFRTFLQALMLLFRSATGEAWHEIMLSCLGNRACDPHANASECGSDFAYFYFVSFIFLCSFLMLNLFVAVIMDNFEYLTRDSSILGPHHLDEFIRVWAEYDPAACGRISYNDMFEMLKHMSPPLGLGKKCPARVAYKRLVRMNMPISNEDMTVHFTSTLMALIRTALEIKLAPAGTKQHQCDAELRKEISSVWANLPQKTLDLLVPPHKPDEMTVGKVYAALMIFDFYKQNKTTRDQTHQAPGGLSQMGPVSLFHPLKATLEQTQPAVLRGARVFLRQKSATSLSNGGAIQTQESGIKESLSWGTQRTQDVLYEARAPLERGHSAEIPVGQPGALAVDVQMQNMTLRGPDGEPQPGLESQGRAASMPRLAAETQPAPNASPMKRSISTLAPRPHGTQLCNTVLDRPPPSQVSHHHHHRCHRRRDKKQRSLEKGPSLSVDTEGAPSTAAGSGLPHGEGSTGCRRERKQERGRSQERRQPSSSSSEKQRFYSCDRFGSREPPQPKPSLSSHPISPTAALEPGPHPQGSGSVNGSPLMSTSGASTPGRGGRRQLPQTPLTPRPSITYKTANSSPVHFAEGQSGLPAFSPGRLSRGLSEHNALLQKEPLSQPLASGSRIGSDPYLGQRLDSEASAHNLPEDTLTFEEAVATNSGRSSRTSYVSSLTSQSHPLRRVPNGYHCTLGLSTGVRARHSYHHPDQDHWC

A word on the Kd: it is the free concentration of one partner at which half of the binding sites on the other are occupied at equilibrium, for simple one-to-one binding. In general, Ki refers to a measure of affinity in units of concentration, obtained from inhibition or displacement. On to “ziconotide (omega-conotoxin MVIIA) (from UniProt P05484)”, for which the equilibrium dissociation constant (Kd) is 1.1 pM and 9 pM in data set [1]; 7 pM and 18 pM in data set [2]. Besides, the inhibition constant Ki in data set [1] was 1 pM.
